{"source": "the RNAGym collection of RNA variant scans (doi:10.1073/pnas.2313332121)", "parents": {"B1": {"name": "TPR t1 (parent)", "chain": "GACCAAUCUGCCCUCAGAGCUCGAGAACAUCUUCGGAUGCAGAGGAGGCAGGCUUCGGUGGCGCGAUAGCGCCAACGUCCUCAACCUCCAAUGCAUCCCACCACAUGAUGAUGCCUGAAGAGCCUUGGUUUUUUG"}}}
{"variants_of": "B1", "experiment": "polymerase ribozyme fitness, log enrichment relative to wild type (log ratio); higher = more active; in vitro selection for triplet polymerase activity", "outline": "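For each subunit of a heterodimeric triplet polymerase ribozyme, a mutant library was built by PCR and transcribed, then taken through a single in vitro selection round in triplicate. Selection involved annealing to a biotinylated primer, the partner subunit and triplets, incubation frozen at −7 °C, gel excision of extended constructs, capture on streptavidin beads and RT-PCR. Genotypes were retained after Illumina sequencing of inputs and outputs only with ≥10 input reads and ≥1 read in each output. Fitness is defined as the logarithm of a genotype's enrichment relative to wild-type enrichment, using inverse-variance-weighted averages across replicates, with the logarithm taken to base 2.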"}
{"variant": "GACCAAUCUGCCCUCAGAGCUCGAGAACAUCUUCGGAUGCAGAGGAGGCAGGCUUCGGUGUCGCGAUAGCGCCAACGUCCUCAACCUCCAAUGCAUCCCACCACAUUAUGAUGCCUGAAGAGCCUUGGUUUUUUG", "note": "[G61U G107U]", "polymerase ribozyme fitness (log ratio)": -4.51}
{"variant": "GACCAAUCUGCCCUCAGAGCUCGAGAACAUCUUCGGAUGCAGAGGAGGCAGGCUUCGGUGUCGCGAUAGCGCCAACGUCCUCAACGUCCAAUGCAUCCCACCACAUGAUGAUGCCUGAAGAGCCUUGGUUUUUUG", "note": "[G61U C86G]", "polymerase ribozyme fitness (log ratio)": -1.55}
{"variant": "GACCAAUCUGCCCUCAGAGCUCGAGAACAUCUUCGGAUGCAGAGGAGGCAGGCUUCGGUGUCGCGAUAGCGCCAACGUCCUCAACCUCCAAUGCAUCCCACCACAUGAUUAUGCCUGAAGAGCCUUGGUUUUUUG", "note": "[G61U G110U]", "polymerase ribozyme fitness (log ratio)": -0.117}
{"variant": "GACCAAUCUGCCCUCAGAGCUCGAGAACAUCUUCGGAUGCAGAGGAGGCAGGCUUCGGUGUCGCGAUAGCGCCAACGUCCUCAACCUCCAAUGCAUCCCACCACAUGAUCAUGCCUGAAGAGCCUUGGUUUUUUG", "note": "[G61U G110C]", "polymerase ribozyme fitness (log ratio)": -2.85}
{"variant": "GACCAAUCUGCCCUCAGAGCUCGAGAACAUCUUCGGAUGCAGAGGAGGCAGGCUUCGGUGUCGCGAUAGCGCCAACGUCCUCAACCUCCAAUGCAUCCCACCACAUGAUGAUGCCUGAAGAGUCUUGGUUUUUUG", "note": "[G61U C123U]", "polymerase ribozyme fitness (log ratio)": 1.8}
{"variant": "GACCAAUCUGCCCUCAGAGCUCGAGAACAUCUUCGGAUGCAGAGGAGGCAGGCUUCGGUGUCGCGAUAGCGCCAACGUCCUCAACCUCCAAUGCAUCCCACCACAUGAUGAUGCCUGAAGAGCAUUGGUUUUUUG", "note": "[G61U C124A]", "polymerase ribozyme fitness (log ratio)": 1.54}
{"variant": "GACCAAUCUGCCCUCAGAGCUCGAGAACAUCUUCGGAUGCAGAGGAGGCAGGCUUCGGUGUCGCGAUAGCGCCAACGUACUCAACCUCCAAUGCAUCCCACCACAUGAUGAUGCCUGAAGAGCCUUGGUUUUUUG", "note": "[G61U C79A]", "polymerase ribozyme fitness (log ratio)": -0.952}
{"variant": "GACCAAUCUGCCCUCAGAGCUCGAGAACAUCUUCGGAUGCAGAGGAGGCAGGCUUCGGUGUCGCGAUAGCGCCAACGUCCUCAACCUCCAAUGGAUCCCACCACAUGAUGAUGCCUGAAGAGCCUUGGUUUUUUG", "note": "[G61U C94G]", "polymerase ribozyme fitness (log ratio)": -0.934}
{"variant": "GACCAAUCUGCCCUCAGAGCUCGAGAACAUCUUCGGAUGCAGAGGAGGCAGGCUUCGGUGUCGCGAUAGCGCCAACGUCCUCAACCUCCAGUACAUCCCACCACUUGAUGAUGCCUUAAGAGCCUUGGUUUUUUG", "note": "[G61U A91G G93A A105U G117U]", "polymerase ribozyme fitness (log ratio)": -6.5}
{"variant": "GACCAAUCUGCCCUCAGAGCUCGAGAACAUCUUCGGAUGCAGAGGAGGCAGGCUUCGGUGUCGCGAUAGCGCCAGCGUCCUGAACCUCCAAUGCAUCCCCCCACAUGAUGAUUCCUGAAGAGCCUUGGUUUUUUG", "note": "[G61U A75G C82G A100C G113U]", "polymerase ribozyme fitness (log ratio)": -5.51}
{"variant": "GACCAAUCUGCCCUCAGAGCUCGAGAACAUCUUCGGAUGCAGAGGAGGCAGGCUUCGGUGUCGCGAUAGCGCCAACGUCAUCAACCUCCAAUGCAUCCCACCACAUGAUGAUGCCUGAAGAGCCUUGGUUUUUUG", "note": "[G61U C80A]", "polymerase ribozyme fitness (log ratio)": -2.59}
{"variant": "GACCAAUCUGCCCUCAGAGCUCGAGAACAUCUUCGGAUGCAGAGGAGGCAGGCUUCGGUGUCGCGAUAGCGCCAACGUCCUCCACCUCGAAUGCAUCCCACCACAUGAUGAUGCCUGAAGAGCCUUGGUUUUUUG", "note": "[G61U A83C C89G]", "polymerase ribozyme fitness (log ratio)": -1.83}
{"variant": "GACCAAUCUGCCCUCAGAGCUCGAGAACAUCUUCGGAUGCAGAGGAGGCAGGCUUCGGUGUCGCGAUAGCGCCAACGUCCUCAACCUCCAAUGCAUCCAACCACAUGAUGAUGCAUGAAGAGCAUUGGUUUUUUG", "note": "[G61U C99A C115A C124A]", "polymerase ribozyme fitness (log ratio)": -4.46}
{"variant": "GACCAAUCUGCCCUCAGAGCUCGAGAACAUCUUCGGAUGCAGAGGAGGCAGGCUUCGGUGUCGCGAUAGCGCCAACGUCCUCAACCUCCAAUGCAUACCCCCACAUGAUGAUGCCUGAAGAGCCUUGGUUUUUUG", "note": "[G61U C97A A100C]", "polymerase ribozyme fitness (log ratio)": -3.32}
{"variant": "GACCAAUCUGCCCUCAGAGCUCGAGAACAUCUUCGGAUGCAGAGGAGGCAGGCUUCGGUGUCGCGAUAGCGCCAACGUCCUCAACCUCCAAUGCAUCCCACCGCAUGAUGAUGCCUGAAGAGCCUUGGUUUUUUG", "note": "[G61U A103G]", "polymerase ribozyme fitness (log ratio)": -4.75}
{"variant": "GACCAAUCUGCCCUCAGAGCUCGAGAACAUCUUCGGAUGCAGAGGAGGCAGGCUUCGGUGUCGCGAUAGCGCCAACGUCCUCAACCUCCAAUGCAUCCCACCACAUGAUGAUGACUGAAGAGCCUUGGUUUUUUG", "note": "[G61U C114A]", "polymerase ribozyme fitness (log ratio)": -1.12}
{"variant": "GACCAAUCUGCCCUCAGAGCUCGAGAACAUCUUCGGAUGCAGAGGAGGCAGGCUUCGGUGUCGCGAUAGCGCCAACGUCCUCAACCUCCAAUGUAUCCCACCACAUGAUGAAGCGUGAAGAGCCUUGGUUUUUUG", "note": "[G61U C94U U112A C115G]", "polymerase ribozyme fitness (log ratio)": -0.199}
{"variant": "GACCAAUCUGCCCUCAGAGCUCGAGAACAUCUUCGGAUGCAGAGGAGGCAGGCUUCGGUGUCGCGAUAGCGCCAACGUCCUGAACCUCCAAUGUAUCCCACCACAUGAUGAUGCCUGAAGAGCCUUGGUUUUUUG", "note": "[G61U C82G C94U]", "polymerase ribozyme fitness (log ratio)": -0.714}
{"variant": "GACCAAUCUGCCCUCAGAGCUCGAGAACAUCUUCGGAUGCAGAGGAGGCAGGCUUCGGUGUCGCGAUAGCGCCAACGUCCUCAACCUCCAAUGCAUCCCACCACAUGAUGAUGCCUGAAGUGCCUUGGUUUUUUG", "note": "[G61U A121U]", "polymerase ribozyme fitness (log ratio)": 1.48}
{"variant": "GACCAAUCUGCCCUCAGAGCUCGAGAACAUCUUCGGAUGCAGAGGAGGCAGGCUUCGGUGUCGCGAUAGCGCCAACGUACUCAACCUCCAAUGCAUCCCACCAUAUGAUGAUGCCUGAAGAGCCUUGGUUUUUUG", "note": "[G61U C79A C104U]", "polymerase ribozyme fitness (log ratio)": -0.851}
{"variant": "GACCAAUCUGCCCUCAGAGCUCGAGAACAUCUUCGGAUGCAGAGGAGGCAGGCUUCGGUGUCGCGAUAGGGCCAACGUCCUCAACCUCCAAUGCAUCCCACCACAUGAUGAUGCCUGAAGAGCCUUGGUUUUUUG", "note": "[G61U C70G]", "polymerase ribozyme fitness (log ratio)": -4.08}
